Measured values as given in patent publication US20240209104A1.

How the values were obtained:
[1] = biological target: OX40 on OX40 over-expressed cells (UniProt P43489); assay: flow cytometry, 1 µg/ml isotype control on OX40 over-expressed cells (PBS: 1388)
[2] = biological target: OX40 on OX40 over-expressed cells (UniProt P43489); assay: flow cytometry, 1 µg/ml positive reference on OX40 over-expressed cells

Chain of OX40 on OX40 over-expressed cells (P43489 29-277): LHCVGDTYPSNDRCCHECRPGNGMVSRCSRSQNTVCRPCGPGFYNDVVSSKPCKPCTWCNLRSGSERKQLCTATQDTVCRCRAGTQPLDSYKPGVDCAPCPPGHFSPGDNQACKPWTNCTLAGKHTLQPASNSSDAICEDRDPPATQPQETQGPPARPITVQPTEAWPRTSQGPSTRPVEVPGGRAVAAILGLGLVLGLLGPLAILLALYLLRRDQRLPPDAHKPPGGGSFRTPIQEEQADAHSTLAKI

| Substance | Y586 channel PE fluorescence value [1] | Y586 channel PE fluorescence value [2] |
| --- | --- | --- |
| IgG2a isotype control (clone MG2a-53, Biogene) (antibody) | 1830 | – |
| anti-OX40 antibody (clone ACT35, Biogene) | – | 210000 |
